Assay results published in patent publication US20030166163A1.

Legend:
[1] = biological target: human intermediate affinity IL-2Rβγ on TF-1β cells (human) (UniProt P14784); assay: cell-based or functional assay
[2] = biological target: human IL-2Rαβγ on Kit-225 cells (human) (UniProt P01589); assay: cell-based or functional assay
[3] = biological target: murine high affinity IL-2Rαβγ on CTLL-2 cells (murine) (UniProt P01590); assay: cell-based or functional assay
[4] = biological target: FcγR receptors on U937 cells; assay: cell-based ELISA on U937 cells, detection with FITC-conjugated anti-human IgG Fc F(ab')2

Chain of UniProt P14784 (P14784 27-551, chain 1 of 2): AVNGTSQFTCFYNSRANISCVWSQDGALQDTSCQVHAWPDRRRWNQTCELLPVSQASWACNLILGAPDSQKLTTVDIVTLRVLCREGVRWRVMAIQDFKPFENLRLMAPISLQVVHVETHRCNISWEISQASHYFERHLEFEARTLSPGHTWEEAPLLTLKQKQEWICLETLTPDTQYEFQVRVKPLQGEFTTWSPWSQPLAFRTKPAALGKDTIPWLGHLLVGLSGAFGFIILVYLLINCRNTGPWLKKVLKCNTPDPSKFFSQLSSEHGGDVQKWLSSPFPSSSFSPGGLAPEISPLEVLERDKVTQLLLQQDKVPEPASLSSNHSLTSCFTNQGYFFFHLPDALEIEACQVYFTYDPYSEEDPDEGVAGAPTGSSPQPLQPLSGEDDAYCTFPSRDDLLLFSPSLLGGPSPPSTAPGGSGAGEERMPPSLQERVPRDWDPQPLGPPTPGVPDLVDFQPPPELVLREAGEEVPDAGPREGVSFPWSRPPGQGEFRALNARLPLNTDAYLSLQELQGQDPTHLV
Chain of UniProt P14784 (P31785 23-369, chain 2 of 2, further chain): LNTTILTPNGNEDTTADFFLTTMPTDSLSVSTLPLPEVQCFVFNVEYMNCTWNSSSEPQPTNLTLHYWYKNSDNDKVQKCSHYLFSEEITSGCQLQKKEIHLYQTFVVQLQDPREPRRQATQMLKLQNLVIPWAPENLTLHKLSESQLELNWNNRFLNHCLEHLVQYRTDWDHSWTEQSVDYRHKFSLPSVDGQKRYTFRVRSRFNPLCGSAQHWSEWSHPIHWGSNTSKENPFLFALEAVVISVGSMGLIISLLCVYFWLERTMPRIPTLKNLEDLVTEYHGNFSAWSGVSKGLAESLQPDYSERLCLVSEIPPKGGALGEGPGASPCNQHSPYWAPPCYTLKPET
Chain of UniProt P01589 (P01589 22-272, chain 1 of 3): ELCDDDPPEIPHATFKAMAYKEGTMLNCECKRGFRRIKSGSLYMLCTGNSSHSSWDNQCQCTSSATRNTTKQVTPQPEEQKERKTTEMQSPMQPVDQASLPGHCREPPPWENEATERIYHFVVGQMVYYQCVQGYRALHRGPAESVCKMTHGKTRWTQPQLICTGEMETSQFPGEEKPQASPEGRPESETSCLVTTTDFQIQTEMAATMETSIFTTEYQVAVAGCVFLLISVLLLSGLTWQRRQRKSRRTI
Chain of UniProt P01589 (P14784 27-551, chain 2 of 3, further chain): as the sequence (P14784 27-551, chain 1 of 2) above
Chain of UniProt P01589 (P31785 23-369, chain 3 of 3, further chain): as the sequence (P31785 23-369, chain 2 of 2, further chain) above
Chain of UniProt P01590 (P01590 22-268, chain 1 of 3): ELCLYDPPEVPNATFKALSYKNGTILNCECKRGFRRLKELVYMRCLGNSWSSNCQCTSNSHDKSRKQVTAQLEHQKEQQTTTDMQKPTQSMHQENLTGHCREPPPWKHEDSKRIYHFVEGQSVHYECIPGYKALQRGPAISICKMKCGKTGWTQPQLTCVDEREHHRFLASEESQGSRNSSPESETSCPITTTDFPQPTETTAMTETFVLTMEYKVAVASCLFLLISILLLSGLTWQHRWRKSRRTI
Chain of UniProt P01590 (P16297 27-539, chain 2 of 3, further chain): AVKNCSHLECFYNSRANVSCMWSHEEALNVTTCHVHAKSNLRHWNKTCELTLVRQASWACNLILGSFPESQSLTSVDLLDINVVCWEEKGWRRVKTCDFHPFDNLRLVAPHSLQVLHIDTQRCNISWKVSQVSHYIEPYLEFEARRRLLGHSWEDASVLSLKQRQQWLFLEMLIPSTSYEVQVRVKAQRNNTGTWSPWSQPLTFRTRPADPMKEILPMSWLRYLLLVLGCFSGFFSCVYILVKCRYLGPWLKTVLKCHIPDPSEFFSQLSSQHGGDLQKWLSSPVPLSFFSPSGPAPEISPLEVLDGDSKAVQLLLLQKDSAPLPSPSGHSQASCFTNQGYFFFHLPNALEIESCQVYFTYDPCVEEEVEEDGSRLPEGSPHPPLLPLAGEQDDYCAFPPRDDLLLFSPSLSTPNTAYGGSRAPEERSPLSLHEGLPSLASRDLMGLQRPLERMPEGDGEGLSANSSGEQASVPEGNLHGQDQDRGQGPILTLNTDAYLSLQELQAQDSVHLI
Chain of UniProt P01590 (P34902 23-369, chain 3 of 3, further chain): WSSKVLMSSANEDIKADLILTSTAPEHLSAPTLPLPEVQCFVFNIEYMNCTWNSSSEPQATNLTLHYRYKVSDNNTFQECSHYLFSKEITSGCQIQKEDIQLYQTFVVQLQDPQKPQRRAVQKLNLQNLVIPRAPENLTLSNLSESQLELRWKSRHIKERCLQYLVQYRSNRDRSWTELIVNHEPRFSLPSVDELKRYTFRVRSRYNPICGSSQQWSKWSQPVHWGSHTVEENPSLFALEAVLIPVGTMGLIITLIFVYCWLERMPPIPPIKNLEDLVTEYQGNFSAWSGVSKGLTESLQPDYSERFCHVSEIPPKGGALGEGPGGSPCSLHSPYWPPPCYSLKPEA

Substance | ED50 Ratio = ED50 [TF1-β]/ED50 [CTLL-2], cell proliferation [1] | ED50 Ratio TF-1β/Kit-225, cell proliferation [1] | ED50, proliferation of CTLL-2 cells [3] | other results
huKS-ala-IL2(N88R) | 2300 | 52000 | 3 | ED50, proliferation of Kit 225 cells [2]: 0.13; shift in selectivity (ED50 ratio TF-1β/CTLL-2) relative to KS-ala-IL2 [1]: 20000 fold
huKS-IL2 | 0.11 | 4 |  | fold change of the ED50 ratio (TF-1β/CTLL-2) against free IL-2 [1]: 5 fold
huKS-ala-IL2 | 0.17 | 10.4 | 5 | EC50 [4]: 5 µg/mL; ED50, proliferation of Kit-225 cells [2]: 0.08
N-Glycanase treated 14.18-IL2 | 0.21 |  |  | fold increase of the ED50 ratio (TF-1β/CTLL-2) compared to untreated 14.18-IL2 [1]: 3 fold

The next lines start with results.

ED50 Ratio = ED50 [TF1-β]/ED50 [CTLL-2], cell proliferation [1] | ED50 Ratio TF-1β/Kit-225, cell proliferation [1] | ED50, proliferation of CTLL-2 cells [3] | Substance | other results
0.45 |  |  | N-Glycanase treated huKS-IL2 | fold increase of the ED50 Ratio (TF-1β/CTLL-2) relative to huKS-IL2 [1]: 2 fold
0.07 |  |  | 14.18-IL2 | 
